From patent publication EP1593386A1 (Charité - Universitätsmedizin Berlin, dated 2005) come the findings set out here.

This assay concerns the target T1, CD7 on human peripheral blood T lymphocytes (human, UniProt P09564 26-240).
T1 construct: whole, on cells
T1 sequence (looked up): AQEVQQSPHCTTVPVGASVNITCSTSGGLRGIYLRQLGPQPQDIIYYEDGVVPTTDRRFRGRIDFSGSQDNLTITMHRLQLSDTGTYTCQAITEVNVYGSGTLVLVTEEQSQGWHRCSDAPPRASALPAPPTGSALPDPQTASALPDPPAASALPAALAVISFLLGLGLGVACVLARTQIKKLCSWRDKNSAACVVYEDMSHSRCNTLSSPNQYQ
Kind of assay: pull-down with galectin-2 coated tosyl-activated magnetic beads on PBT, immunoblot for CD7. On the technique in general: A western blot detects proteins with antibodies after separation by electrophoresis.

B1: galectin-2 (ligand, UniProt P05162 1-132, looked up)
chain: MTGELEVKNMDMKPGSTLKITGSIADGTDGFVINLGQGTDKLNLHFNPRFSESTIVCNSLDGSNWGQEQREDHLCFSPGSEVKFTVTFESDKFKVKLPDGHELTFPNRLGHSHLSYLSVRGGFNMSSFKLKE
modifications: biotin-labelled (sites not given) in the flow cytometry assays; coupled to tosyl-activated magnetic beads in the co-immunoprecipitation
notes: also called Gal-2; biotin-labelled galectin-2
With B1, the binding result is reported as “no binding”.
